{"source": "patent US20220002363A1", "about": "“COMPOSITIONS AND METHODS FOR TREATING PULMONARY DISEASE” (United States Government As Represented By The Department …, priority 2020, published 2022)", "molecules": {"B1": {"name": "mut-sFasL: mutant sFasL molecule in which 8 charged amino acids in the 26 amino acid stalk region were changed to alanine (protein)", "chain": "QLFALQAALAALAASTSQMATASSLAKQIGHPSPPPEKKELRKVAHLTGKSNSRSMPLEWEDTYGIVLLSGVKYKKGGLVINETGLYFVYSKVYFRGQSCNNLPLSHKVYMRNSKYPQDLVMMEGKMMSYCTTGQMWARSSYLGAVFNLTSADHLYVNVSELSLVNFEESQTFFGLYKL"}}, "key": {"[1]": {"biological_target": "T1, WT-sFasL (Homo sapiens, UniProt P48023)", "T1 construct": "made in house", "T1 sequence (P48023 103-281)": "B1 chain with A4H, A7K, A8E, A11E, A13R, A14E, A20H, A26E", "assay": "Attenuation of WT-sFasL-induced caspase 3/7 activity in Jurkat cells by molar mixtures of WT and mut-sFasL", "format": "cell-based", "conditions": "serial dilutions of mut sFasL", "protocol": "(§1) FIGS. 2A-D show the mut-sFasL has inhibitory properties. Highly Fas-sensitive Jurkat cells (FIG. 2A), primary human lung small airway epithelial cells (SAEC, FIG. 2B) or murine lung epithelial cells (LA4, FIG. 2D) were incubated with serial dilutions of mutated FasL, (mut sFasL). […] As a confirmatory test, the experiment was repeated using SAEC and an annexin-V translocation assay (FIG. 2C). WT=wild type (no mutant). […] Each dot represents individual data; lines represent means±SD. *=P<0.05; **=P<0.01, ***P<0.001 when compared to WT. One way ANOVA with SIdak's post hoc analysis.\nMethods. Cells and cell culture. To test Fas responses in vitro, the highly-Fas sensitive cell line, Jurak, was used. […]\n(§2) Measurements of apoptotic cascade activation. Apoptotic cascade activation was assessed by determining caspase 3/7 activity and Annexin V externalization. Caspase-3/7 activity was measured using a commercial substrate (Caspase-Glo 3/7 Assay, Promega, Madison, Wis., Cat #G8090) following manufacturer's instructions. Annexin V was measured with a luminescent commercial assay that allows for measurement of annexin V externalization in adherent cells (RealTime-Glo Annexin V assay, Promega, Madison, Wis., Cat #JA1011). Luminescence was measured with a Synergy H4 Microplate Reader (BioTek, Winooski, Vt.). […]"}, "[2]": {"biological_target": "T1, WT-sFasL", "assay": "Annexin-V externalization (translocation) assay in SAEC with WT:mut sFasL mixtures", "format": "cell-based", "conditions": "WT:mut sFasL molar ratios of 1:27 and 1:81", "protocol": "as §1, with “analysis. […]” for “analysis.”\nas §2"}, "[3]": {"biological_target": "T1, WT-sFasL", "assay": "Attenuation of WT-sFasL-induced caspase 3/7 activity in murine lung epithelial cells (LA4)", "format": "cell-based, mouse", "protocol": "as §1\nMouse lung epithelial LA-4 cells were obtained from ATCC (catalogue number CCL-196, lot number 3404534). This cell line is derived from a A/He mouse lung adenoma (Stoner G, et al. Cancer Res. 1975; 35(8):2177-85). […]\nas §2"}}, "note": "Substitutions are numbered along the chain they refer to. Read-outs that look alike come from different tables or passages of the source.", "data": [{"molecule": "B1", "values": [{"measurement": "inhibition of wild type sFasL activity (caspase 3/7)", "setting": "[1]", "result": "dose-dependent inhibition of wild type sFasL activity"}, {"measurement": "Annexin V translocation", "setting": "[2]", "result": "significantly reduced"}, {"measurement": "inhibition of WT-sFasL-induced caspase 3-7 activity", "setting": "[3]", "result": "inhibited the ability of WT-sFasL to induce caspase 3-7 activity"}, {"measurement": "inhibition of WT-sFasL-induced caspase 3-7 activity", "setting": "[3]; listed as 8-mutant protein", "result": "an inhibitory effect of the 8-mutant protein was detected"}]}]}
